PMC3290555

How the values were obtained:
[1] = target: N-terminal domain of murine CNPase (residues -1-160) (mouse); assay: SEC; Superdex 75 10/300 GL; 20 mM Na-HEPES pH 8, 200 mM NaCl, 1 mM DTT; 250 µl at 1.7 mg/ml injected; molecular weight markers run under the same conditions
[2] = target: full-length CNPase construct (residues -1-378), mouse 2',3'-cyclic nucleotide 3'-phosphodiesterase lacking the 22-residue C-terminal tail (mouse); assay: SEC-MALS; Sephadex S-200 column with online light scattering and refractive index detectors; 20 mM Bis-Tris-HCl pH 5.5, 300 mM NaCl, 1% glycerol, 1 mM DTT; monomer-dimer equilibrium

Substance | stoichiometry N [1] | stoichiometry N [2]
N-terminal domain of murine CNPase (residues -1-160) (domain or fragment) | 2 | –
full-length CNPase construct (residues -1-378), mouse 2',3'-cyclic nucleotide 3'-phosphodiesterase lacking the 22-residue C-terminal tail (enzyme) | – | 2
